This is an account of results in paper PMC4939424 (2016).

The assay has as its target Actin filaments (F-actin) polymerized in vitro from rabbit skeletal muscle actin (Oryctolagus cuniculus (Rabbit), UniProt P68135). The assay can be described thus: F-actin co-sedimentation (pelleting).

B1: GST-fused PI3KAP/XB130 fragment, GST-del1 without the C-terminal 70 amino acids (GST-del2) (protein)
chain: LPSRDCQDDLYDDVEVSELIAVVEPAEEAAPAVDANSGSEPDRVYLDLTPVKSFLHSSSEAQAQASLPAVPHQDDVAETLTVDPKPGTTPEEPHTESPGDPEVQQRQPEVQESSEPIEPTPRITMVKLQAEQQRISFPANCPDTMASAPIAASPPVKEKLRVTSAEIKLGKNRTEAEVKRYTEEKERLERSKEEIRGHLAQLRREKRELKETLLRCTDKGVLAKLEQTLKKIDEECRMEESRRVDLELSIMEVKDNLKKAEAG
Take B1: the binding result was “no binding”.

B2: GST-fused PI3KAP/XB130 C-terminal fragment, amino acid residues 511-843 (GST-del1) (protein)
chain: LPSRDCQDDLYDDVEVSELIAVVEPAEEAAPAVDANSGSEPDRVYLDLTPVKSFLHSSSEAQAQASLPAVPHQDDVAETLTVDPKPGTTPEEPHTESPGDPEVQQRQPEVQESSEPIEPTPRITMVKLQAEQQRISFPANCPDTMASAPIAASPPVKEKLRVTSAEIKLGKNRTEAEVKRYTEEKERLERSKEEIRGHLAQLRREKRELKETLLRCTDKGVLAKLEQTLKKIDEECRMEESRRVDLELSIMEVKDNLKKAEAGPVTLGTTVDTTHLDNMSPRPQPKAATPNPPPDSTPVNSASVLKNRPLSVMVTGKGTVLQKAKEWEKKGAS
As for B2, the binding result is “binds”.

B3: GST-fused C-terminal 70 amino acid residues of PI3KAP/XB130 (GST-del3) (protein)
chain: PVTLGTTVDTTHLDNMSPRPQPKAATPNPPPDSTPVNSASVLKNRPLSVMVTGKGTVLQKAKEWEKKGAS
Regarding B3, the binding result is given as “binds”.
